Measured values as given in PMC5062617, “Nop9 is a PUF-like protein that prevents premature cleavage to correctly process pre-18S rRNA”.
Where a chain is given by its changes, count along the chain named. In names and notes the source's numbering stands.

Experiments:
Test in all cases: EMSA; EMSA: 10 mM HEPES, 150 mM NaCl, 0.01% Tween-20, 0.1 mg/ml BSA, 1 mM TCEP, 4 °C, 40 min; RNA <50 pM
Nop9 (46-645) [1] = molecular target: T1, Nop9 (46-645) (Saccharomyces cerevisiae, UniProt P47077 46-645); details: protein: recombinant, tags: none (SUMO cleaved), hairpin
T1 sequence: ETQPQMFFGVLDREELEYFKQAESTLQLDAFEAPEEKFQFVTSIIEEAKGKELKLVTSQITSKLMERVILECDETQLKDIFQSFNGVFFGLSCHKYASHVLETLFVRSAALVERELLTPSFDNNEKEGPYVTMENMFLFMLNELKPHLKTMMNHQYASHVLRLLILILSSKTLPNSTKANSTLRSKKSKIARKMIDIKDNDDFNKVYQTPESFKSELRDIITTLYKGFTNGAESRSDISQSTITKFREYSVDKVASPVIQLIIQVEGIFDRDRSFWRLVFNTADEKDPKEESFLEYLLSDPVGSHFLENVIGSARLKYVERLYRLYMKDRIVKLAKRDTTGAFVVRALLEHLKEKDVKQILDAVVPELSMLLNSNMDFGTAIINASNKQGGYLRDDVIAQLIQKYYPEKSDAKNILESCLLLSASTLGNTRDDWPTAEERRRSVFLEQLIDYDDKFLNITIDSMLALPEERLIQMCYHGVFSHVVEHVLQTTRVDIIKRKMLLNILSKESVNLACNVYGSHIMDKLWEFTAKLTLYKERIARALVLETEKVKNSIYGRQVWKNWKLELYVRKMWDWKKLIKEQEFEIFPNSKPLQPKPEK

Nop9 full-length = molecular target: T2, Nop9 full-length (Saccharomyces cerevisiae, UniProt P47077 1-666); details: protein: recombinant; tags: none (SUMO cleaved); label: 5' 32P; hairpin, 5' flank
T2 sequence: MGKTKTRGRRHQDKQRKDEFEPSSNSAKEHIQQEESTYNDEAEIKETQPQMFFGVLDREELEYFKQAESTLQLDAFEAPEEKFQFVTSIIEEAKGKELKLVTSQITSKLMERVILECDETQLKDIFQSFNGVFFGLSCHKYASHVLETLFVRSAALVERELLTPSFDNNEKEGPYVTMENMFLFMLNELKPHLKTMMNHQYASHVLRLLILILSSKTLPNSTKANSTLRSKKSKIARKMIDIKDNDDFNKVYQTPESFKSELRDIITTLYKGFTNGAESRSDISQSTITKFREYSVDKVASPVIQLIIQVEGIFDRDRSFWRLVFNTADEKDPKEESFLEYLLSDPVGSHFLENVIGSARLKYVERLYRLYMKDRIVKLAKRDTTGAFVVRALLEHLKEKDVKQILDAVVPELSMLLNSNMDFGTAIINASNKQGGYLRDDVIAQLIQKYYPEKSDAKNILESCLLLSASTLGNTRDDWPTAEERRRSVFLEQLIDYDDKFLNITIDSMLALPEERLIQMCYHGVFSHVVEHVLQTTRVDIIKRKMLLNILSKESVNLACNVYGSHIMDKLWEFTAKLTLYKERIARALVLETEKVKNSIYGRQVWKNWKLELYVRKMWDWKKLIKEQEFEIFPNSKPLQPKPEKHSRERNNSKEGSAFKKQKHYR

Nop9 (46-645) [2] = molecular target: T1, Nop9 (46-645); details: protein: recombinant; tags: none (SUMO cleaved); label: 5' 32P; hairpin, 5' flank
Nop9 (46-645) [3] = molecular target: T1, Nop9 (46-645); details: protein: recombinant; tags: none (SUMO cleaved); label: 5' 32P; hairpin, 5' flank; remark: listed apart in the source

B1: Subdomain A Δ5'1-12, Δ3' (structured_RNA)
RNA: GGAAUUUUGAAAAUGGAUUUUUUUGUUUUAUAGGACAAUUAAAACCGUUUCAA
Q: Which Kd (Nop9 (46-645) [1]; label: 5' 32P, 5' flank) does the source give for B1 here?
A: 18.2 ± 1.9 nM

B2: ITS1 Subdomain B (39-77_140-183) (structured_RNA)
RNA: GGUGGCAAGAGCAUGAGAGCUUUUACUGGGCAAGAAGACAAUUUCUUGCUAUUCCAAACGGUGAGAGAUUUCUGUGCUUUUGUUA
Q: With B2 as the binder, how does the Kd (Nop9 (46-645) [1]; label: 5' 32P) read?
A: 105 ± 2.9 nM

B3: Subdomain A Δ5'1-6, Δ3' (structured_RNA)
RNA: GGUUUAAUAAUUUUGAAAAUGGAUUUUUUUGUUUUAUAGGACAAUUAAAACCGUUUCAA
Q: What does the source list for B3?
A: Kd (Nop9 full-length): 10.1 ± 1 nM; Kd (Nop9 (46-645) [1]; label: 5' 32P, 5' flank): 11.8 ± 0.4 nM

B4: AAU(10-12)CCC, A Δ5'1-6, Δ3' (structured_RNA)
RNA: B3 RNA with A6C, A7C, U8C
Q: B4 was tested. Which Kd (Nop9 (46-645) [1]; label: 5' 32P, 5' flank) did it give?
A: 8.5 ± 0.6 nM

B5: UUU(7-9)GGG, A Δ5'1-6, Δ3' (structured_RNA)
RNA: B3 RNA with U3G, U4G, U5G
Q: Which Kd (Nop9 (46-645) [1]; label: 5' 32P, 5' flank) does the source give for B5 here?
A: 6.6 ± 0.3 nM

B6: I: UUU(16-18)GGC, AA(205-206)GC (structured_RNA)
RNA: B3 RNA with U12G, U13G, U14C, A58G, A59C
Q: B6 was tested. Which Kd (Nop9 (46-645) [1]; label: 5' 32P, 5' flank) did it give?
A: 103 ± 12 nM

B7: U16A (structured_RNA)
RNA: B3 RNA with U12A
Q: Which Kd (Nop9 (46-645) [1]; label: 5' 32P, 5' flank) does the source give for B7 here?
A: 62.3 ± 4.9 nM

B8: nt 20-22 mutant, pairing kept (structured_RNA)
RNA: B3 RNA with A16C, A17C, A18C, U54G, U55G, U56G
Q: Does B8 bind (Nop9 (46-645) [1]; label: 5' 32P, 5' flank)?
A: binds

B9: AAU(13-15)CCC, A Δ5'1-6, Δ3' (structured_RNA)
RNA: B3 RNA with A9C, A10C, U11C
Q: B9 was tested. Which Kd (Nop9 (46-645) [1]; label: 5' 32P, 5' flank) did it give?
A: 27.6 ± 3.7 nM

B10: IV: stem base strands reversed (UUG17-19AAC, CAA204-206GUU) (structured_RNA)
RNA: B3 RNA with U13A, U14A, G15C, C57G, A58U, A59U
Q: Does B10 bind (Nop9 (46-645) [1]; label: 5' 32P, 5' flank)?
A: binds

B11: II: U16G (structured_RNA)
RNA: B3 RNA with U12G
Q: With B11 as the binder, how does the Kd (Nop9 (46-645) [1]; label: 5' 32P, 5' flank) read?
A: 47.7 ± 1.8 nM

B12: III: UU(17-18)GC, AA(205-206)GC (structured_RNA)
RNA: B3 RNA with U13G, U14C, A58G, A59C
Q: B12 was tested. Which binding signal (Nop9 (46-645) [2]) did it give?
A: ~4 fold Kd vs A Δ5'1-6,Δ3'

B13: ITS1 Subdomain C (77-140) (structured_RNA)
RNA: GGAGAGAUGGAGAGUCCAGCCGGGCCUGCGCUUAAGUGCGCGGUCUUGCUAGGCUUGUAAGUUUCU
Q: B13 was tested. Which Kd (Nop9 (46-645) [1]; label: 5' 32P) did it give?
A: 74.4 ± 4.1 nM

B14: nt 27-30 mutant, pairing kept (structured_RNA)
RNA: GGUUUAAUAAUUUUGAAAAUGGGCGCUUUUGUUUUAUAGGACAAUUGCGCCCGUUUCAA
Q: Does B14 bind (Nop9 (46-645) [1]; label: 5' 32P, 5' flank)?
A: binds

B15: V: U-G pairs at stem base (structured_RNA)
RNA: UUUAAUAAUUUUGAAAAUGGAUUUUUUUGUUUUAUAGGACAAUUAAAACCGUUUCGG
Q: B15 was tested. Which binding signal (Nop9 (46-645) [3]) did it give?
A: ~3 fold Kd vs A Δ5'1-6,Δ3'

B16: ITS1 Subdomain A (1-38_184-212) (structured_RNA)
RNA: GGAAGAAAUUUAAUAAUUUUGAAAAUGGAUUUUUUUGUUUUAUAGGACAAUUAAAACCGUUUCAAUACAAC
Q: For B16, which Kd (Nop9 (46-645) [1]; label: 5' 32P (EMSA), 5' and 3' single-stranded flanks) is on record?
A: 2.4 ± 0.3 nM

Q: How did the Kd (Nop9 (46-645) [1]; label: 5' 32P) turn out when GGUUUGAAAAUGGAUUUUUUUGUUUUAUAGGACAAUUAAAACCGUUUCAA (structured_RNA) [Subdomain A Δ5'1-15, Δ3'] was run?
A: 346 ± 40 nM

B17: Subdomain A Δ3' (structured_RNA)
RNA: GGAAGAAAUUUAAUAAUUUUGAAAAUGGAUUUUUUUGUUUUAUAGGACAAUUAAAACCGUUUCAA
Q: Which Kd (Nop9 (46-645) [1]; label: 5' 32P, 5' flank) does the source give for B17 here?
A: 15.7 ± 2.6 nM
